Reference: patent US20250145730A1 (SHANGHAI BAO PHARMACEUTICALS, published 2025)

Target: T1, human FcRn (human, UniProt P55899 24-297; P61769 21-119)
T1 construct: also called hFcRn
Experiment: BLI, acidic conditions, against the wild-type antibody

T1 sequence (P55899 24-297 limits assumed, chain 1 of 2): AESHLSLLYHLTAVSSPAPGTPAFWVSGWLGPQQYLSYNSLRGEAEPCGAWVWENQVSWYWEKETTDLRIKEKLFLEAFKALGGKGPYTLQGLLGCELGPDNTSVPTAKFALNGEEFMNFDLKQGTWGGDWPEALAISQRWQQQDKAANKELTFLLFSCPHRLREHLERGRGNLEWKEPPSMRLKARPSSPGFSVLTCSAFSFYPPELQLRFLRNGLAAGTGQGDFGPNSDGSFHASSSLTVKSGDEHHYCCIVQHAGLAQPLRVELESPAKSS
T1 sequence (P61769 21-119 limits assumed, chain 2 of 2): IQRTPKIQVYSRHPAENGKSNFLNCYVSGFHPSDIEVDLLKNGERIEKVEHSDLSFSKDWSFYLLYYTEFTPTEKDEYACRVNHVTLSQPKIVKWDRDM

B1: Antibody 8 (antibody, human IgG1, kappa)
heavy: not shown
light: DIVMTQSHLSMSTSLGDPVSITCKASQDVSTVVAWYQQKPGQSPRRLIYSASYRYIGVPDRFTGSGAGTDFTFTISSVQAEDLAVYYCQQHYSPPYTFGGGTKLEIKRTVAAPSVFIFPPSDEQLKSGTASVVCLLNNFYPREAKVQWKVDNALQSGNSQESVTEQDSKDSTYSLSSTLTLSKADYEKHKVYACEVTHQGLSSPVTKSFNRGEC
notes: also called antibody 3-Fucose
B1 was tested. Which “fold of the wild-type antibody's affinity” value did it give?
Its value is no more than 3 fold.
